# Numbered stars: 1 amine (or outer) side, 2 acyl side, 3 side chain; on linkers, the order of the positions; unused ones are H or OH. Bridge positions count the residues as written; N and C are the ends. Side chains are listed from the residue outwards. Ends that are not written are not given here. * marks the point of attachment. C20 diacid = O=C(O)CCCCCCCCCCCCCCCCCCC(=O)*; γGlu = O=C(O)[C@H](CCC(=O)[*:2])N[*:1]; AEEA = NCCOCCOCC(=O)O
# T1: rat calcitonin receptor (rat, UniProt P32214 25-516)
# T1 construct: whole, on cells; Used as membranes prepared from the transfected cells; also called rCTR; rCT
# T1 sequence (looked up): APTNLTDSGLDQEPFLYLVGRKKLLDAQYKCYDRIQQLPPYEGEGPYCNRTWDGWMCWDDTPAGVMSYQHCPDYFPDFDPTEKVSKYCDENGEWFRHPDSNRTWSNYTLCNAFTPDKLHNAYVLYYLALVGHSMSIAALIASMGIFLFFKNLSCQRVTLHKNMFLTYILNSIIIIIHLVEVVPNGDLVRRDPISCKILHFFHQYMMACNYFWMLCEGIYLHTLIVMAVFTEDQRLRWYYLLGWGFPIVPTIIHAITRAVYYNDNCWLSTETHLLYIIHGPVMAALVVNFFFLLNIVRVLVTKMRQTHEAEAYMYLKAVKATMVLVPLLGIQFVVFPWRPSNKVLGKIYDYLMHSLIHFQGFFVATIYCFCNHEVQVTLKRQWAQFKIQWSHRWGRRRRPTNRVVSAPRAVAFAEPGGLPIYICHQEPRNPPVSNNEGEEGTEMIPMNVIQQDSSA
# T2: human calcitonin receptor (human, UniProt P30988 25-474)
# T2 construct: whole, on cells; Used as membranes prepared from the transfected cells; also called hCTR; hCT
# T2 sequence (looked up): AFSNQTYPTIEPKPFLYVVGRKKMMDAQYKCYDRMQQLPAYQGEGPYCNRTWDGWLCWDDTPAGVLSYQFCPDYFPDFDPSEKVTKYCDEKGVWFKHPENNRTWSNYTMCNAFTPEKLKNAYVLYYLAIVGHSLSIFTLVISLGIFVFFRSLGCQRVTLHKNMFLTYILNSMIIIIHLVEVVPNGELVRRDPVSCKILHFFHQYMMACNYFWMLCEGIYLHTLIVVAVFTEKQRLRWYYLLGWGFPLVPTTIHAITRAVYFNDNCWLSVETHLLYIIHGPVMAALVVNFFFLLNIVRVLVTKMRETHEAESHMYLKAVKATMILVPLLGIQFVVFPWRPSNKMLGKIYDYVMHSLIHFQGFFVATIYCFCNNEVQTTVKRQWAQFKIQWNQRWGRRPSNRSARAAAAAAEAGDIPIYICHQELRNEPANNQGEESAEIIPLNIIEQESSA
# B1: N^ε1-[2-[2-[2-[[(4S)-4-carboxy-4-(19-carboxynonadecanoylamino)butanoyl]amino]ethoxy]ethoxy]acetyl]-[His14,Arg17,Pro21,Pro27,Pro34]-h-amylin (peptide)
# peptide: K([AEEA-γGlu-C20 diacid])CNTATCATQRLAHFLRHSSPNFGAIPSSTNVGPNTY-NH2
# modifications: disulfide 2-7; N-terminus assumed
# SMILES: CC[C@H](C)[C@H](NC(=O)[C@H](C)NC(=O)CNC(=O)[C@H](Cc1ccccc1)NC(=O)[C@H](CC(N)=O)NC(=O)[C@@H]1CCCN1C(=O)[C@H](CO)NC(=O)[C@H](CO)NC(=O)[C@H](Cc1c[nH]cn1)NC(=O)[C@H](CCCNC(=N)N)NC(=O)[C@H](CC(C)C)NC(=O)[C@H](Cc1ccccc1)NC(=O)[C@H](Cc1c[nH]cn1)NC(=O)[C@H](C)NC(=O)[C@H](CC(C)C)NC(=O)[C@H](CCCNC(=N)N)NC(=O)[C@H](CCC(N)=O)NC(=O)[C@@H](NC(=O)[C@H](C)NC(=O)[C@@H]1CSSC[C@H](NC(=O)[C@@H](N)CCCCNC(=O)COCCOCCNC(=O)CC[C@H](NC(=O)CCCCCCCCCCCCCCCCCCC(=O)O)C(=O)O)C(=O)N[C@@H](CC(N)=O)C(=O)N[C@@H]([C@@H](C)O)C(=O)N[C@@H](C)C(=O)N[C@@H]([C@@H](C)O)C(=O)N1)[C@@H](C)O)C(=O)N1CCC[C@H]1C(=O)N[C@@H](CO)C(=O)N[C@@H](CO)C(=O)N[C@H](C(=O)N[C@@H](CC(N)=O)C(=O)N[C@H](C(=O)NCC(=O)N1CCC[C@H]1C(=O)N[C@@H](CC(N)=O)C(=O)N[C@H](C(=O)N[C@@H](Cc1ccc(O)cc1)C(N)=O)[C@@H](C)O)C(C)C)[C@@H](C)O
# notes: Analogue of human amylin; disulfide and C-terminal amide as told for h-amylin; also called compound 68
# B2: N^ε1-[2-[2-[2-[[(4S)-4-carboxy-4-(19-carboxynonadecanoylamino)butanoyl]amino]ethoxy]ethoxy]acetyl]-[Thr14,Arg17,Pro21,Pro27,Pro31]-h-amylin (peptide)
# peptide: K([AEEA-γGlu-C20 diacid])CNTATCATQRLATFLRHSSPNFGAIPSSTPVGSNTY-NH2
# modifications: disulfide 2-7; N-terminus assumed
# SMILES: CC[C@H](C)[C@H](NC(=O)[C@H](C)NC(=O)CNC(=O)[C@H](Cc1ccccc1)NC(=O)[C@H](CC(N)=O)NC(=O)[C@@H]1CCCN1C(=O)[C@H](CO)NC(=O)[C@H](CO)NC(=O)[C@H](Cc1c[nH]cn1)NC(=O)[C@H](CCCNC(=N)N)NC(=O)[C@H](CC(C)C)NC(=O)[C@H](Cc1ccccc1)NC(=O)[C@@H](NC(=O)[C@H](C)NC(=O)[C@H](CC(C)C)NC(=O)[C@H](CCCNC(=N)N)NC(=O)[C@H](CCC(N)=O)NC(=O)[C@@H](NC(=O)[C@H](C)NC(=O)[C@@H]1CSSC[C@H](NC(=O)[C@@H](N)CCCCNC(=O)COCCOCCNC(=O)CC[C@H](NC(=O)CCCCCCCCCCCCCCCCCCC(=O)O)C(=O)O)C(=O)N[C@@H](CC(N)=O)C(=O)N[C@@H]([C@@H](C)O)C(=O)N[C@@H](C)C(=O)N[C@@H]([C@@H](C)O)C(=O)N1)[C@@H](C)O)[C@@H](C)O)C(=O)N1CCC[C@H]1C(=O)N[C@@H](CO)C(=O)N[C@@H](CO)C(=O)N[C@H](C(=O)N1CCC[C@H]1C(=O)N[C@H](C(=O)NCC(=O)N[C@@H](CO)C(=O)N[C@@H](CC(N)=O)C(=O)N[C@H](C(=O)N[C@@H](Cc1ccc(O)cc1)C(N)=O)[C@@H](C)O)C(C)C)[C@@H](C)O
# notes: Analogue of human amylin; disulfide and C-terminal amide as told for h-amylin; also called compound 75
# B3: N^ε1-[2-[2-[2-[[(4S)-4-carboxy-4-(19-carboxynonadecanoylamino)butanoyl]amino]ethoxy]ethoxy]acetyl]-[Ser14,Arg17,Pro21,Pro27,Pro31]-h-amylin (peptide)
# peptide: K([AEEA-γGlu-C20 diacid])CNTATCATQRLASFLRHSSPNFGAIPSSTPVGSNTY-NH2
# modifications: disulfide 2-7; N-terminus assumed
# SMILES: CC[C@H](C)[C@H](NC(=O)[C@H](C)NC(=O)CNC(=O)[C@H](Cc1ccccc1)NC(=O)[C@H](CC(N)=O)NC(=O)[C@@H]1CCCN1C(=O)[C@H](CO)NC(=O)[C@H](CO)NC(=O)[C@H](Cc1c[nH]cn1)NC(=O)[C@H](CCCNC(=N)N)NC(=O)[C@H](CC(C)C)NC(=O)[C@H](Cc1ccccc1)NC(=O)[C@H](CO)NC(=O)[C@H](C)NC(=O)[C@H](CC(C)C)NC(=O)[C@H](CCCNC(=N)N)NC(=O)[C@H](CCC(N)=O)NC(=O)[C@@H](NC(=O)[C@H](C)NC(=O)[C@@H]1CSSC[C@H](NC(=O)[C@@H](N)CCCCNC(=O)COCCOCCNC(=O)CC[C@H](NC(=O)CCCCCCCCCCCCCCCCCCC(=O)O)C(=O)O)C(=O)N[C@@H](CC(N)=O)C(=O)N[C@@H]([C@@H](C)O)C(=O)N[C@@H](C)C(=O)N[C@@H]([C@@H](C)O)C(=O)N1)[C@@H](C)O)C(=O)N1CCC[C@H]1C(=O)N[C@@H](CO)C(=O)N[C@@H](CO)C(=O)N[C@H](C(=O)N1CCC[C@H]1C(=O)N[C@H](C(=O)NCC(=O)N[C@@H](CO)C(=O)N[C@@H](CC(N)=O)C(=O)N[C@H](C(=O)N[C@@H](Cc1ccc(O)cc1)C(N)=O)[C@@H](C)O)C(C)C)[C@@H](C)O
# notes: Analogue of human amylin; disulfide and C-terminal amide as told for h-amylin; also called compound 73
# B4: N^ε1-[(4S)-4-carboxy-4-(19-carboxynonadecanoylamino)butanoyl]-[Ala14,Arg17,Pro21,Pro27,His34]-h-amylin (peptide)
# peptide: K([γGlu-C20 diacid])CNTATCATQRLAAFLRHSSPNFGAIPSSTNVGHNTY-NH2
# modifications: disulfide 2-7; N-terminus assumed
# SMILES: CC[C@H](C)[C@H](NC(=O)[C@H](C)NC(=O)CNC(=O)[C@H](Cc1ccccc1)NC(=O)[C@H](CC(N)=O)NC(=O)[C@@H]1CCCN1C(=O)[C@H](CO)NC(=O)[C@H](CO)NC(=O)[C@H](Cc1c[nH]cn1)NC(=O)[C@H](CCCNC(=N)N)NC(=O)[C@H](CC(C)C)NC(=O)[C@H](Cc1ccccc1)NC(=O)[C@H](C)NC(=O)[C@H](C)NC(=O)[C@H](CC(C)C)NC(=O)[C@H](CCCNC(=N)N)NC(=O)[C@H](CCC(N)=O)NC(=O)[C@@H](NC(=O)[C@H](C)NC(=O)[C@@H]1CSSC[C@H](NC(=O)[C@@H](N)CCCCNC(=O)CC[C@H](NC(=O)CCCCCCCCCCCCCCCCCCC(=O)O)C(=O)O)C(=O)N[C@@H](CC(N)=O)C(=O)N[C@@H]([C@@H](C)O)C(=O)N[C@@H](C)C(=O)N[C@@H]([C@@H](C)O)C(=O)N1)[C@@H](C)O)C(=O)N1CCC[C@H]1C(=O)N[C@@H](CO)C(=O)N[C@@H](CO)C(=O)N[C@H](C(=O)N[C@@H](CC(N)=O)C(=O)N[C@H](C(=O)NCC(=O)N[C@@H](Cc1c[nH]cn1)C(=O)N[C@@H](CC(N)=O)C(=O)N[C@H](C(=O)N[C@@H](Cc1ccc(O)cc1)C(N)=O)[C@@H](C)O)C(C)C)[C@@H](C)O
# notes: Analogue of human amylin; disulfide and C-terminal amide as told for h-amylin; also called compound 93
# B5: N^ε1-[2-[2-[2-[[(4S)-4-carboxy-4-(19-carboxynonadecanoylamino)butanoyl]amino]ethoxy]ethoxy]acetyl]-[Lys14,Arg17,Pro21,Pro27,Pro31]-h-amylin (peptide)
# peptide: K([AEEA-γGlu-C20 diacid])CNTATCATQRLAKFLRHSSPNFGAIPSSTPVGSNTY-NH2
# modifications: disulfide 2-7; N-terminus assumed
# SMILES: CC[C@H](C)[C@H](NC(=O)[C@H](C)NC(=O)CNC(=O)[C@H](Cc1ccccc1)NC(=O)[C@H](CC(N)=O)NC(=O)[C@@H]1CCCN1C(=O)[C@H](CO)NC(=O)[C@H](CO)NC(=O)[C@H](Cc1c[nH]cn1)NC(=O)[C@H](CCCNC(=N)N)NC(=O)[C@H](CC(C)C)NC(=O)[C@H](Cc1ccccc1)NC(=O)[C@H](CCCCN)NC(=O)[C@H](C)NC(=O)[C@H](CC(C)C)NC(=O)[C@H](CCCNC(=N)N)NC(=O)[C@H](CCC(N)=O)NC(=O)[C@@H](NC(=O)[C@H](C)NC(=O)[C@@H]1CSSC[C@H](NC(=O)[C@@H](N)CCCCNC(=O)COCCOCCNC(=O)CC[C@H](NC(=O)CCCCCCCCCCCCCCCCCCC(=O)O)C(=O)O)C(=O)N[C@@H](CC(N)=O)C(=O)N[C@@H]([C@@H](C)O)C(=O)N[C@@H](C)C(=O)N[C@@H]([C@@H](C)O)C(=O)N1)[C@@H](C)O)C(=O)N1CCC[C@H]1C(=O)N[C@@H](CO)C(=O)N[C@@H](CO)C(=O)N[C@H](C(=O)N1CCC[C@H]1C(=O)N[C@H](C(=O)NCC(=O)N[C@@H](CO)C(=O)N[C@@H](CC(N)=O)C(=O)N[C@H](C(=O)N[C@@H](Cc1ccc(O)cc1)C(N)=O)[C@@H](C)O)C(C)C)[C@@H](C)O
# notes: Analogue of human amylin; disulfide and C-terminal amide as told for h-amylin; Acylation site is 1K, not Lys14; also called compound 74
# Target: T1, rat calcitonin receptor
# Assay: SPA competition with 125I-calcitonin, membranes with rat calcitonin receptor (Assay VIII)
row,IC50,Binder
1,28.5 nM,B1
2,442 nM,B2
3,50.3 nM,B3
4,131 nM,B4
5,109 nM,B5

# Target: T1, rat calcitonin receptor
# Assay: ratio of binding IC50 at rat calcitonin receptor to IC50 at rat amylin receptor (reference)
row,Ratio rCT/rAmylin binding,Binder
1,122,B1
2,110,B2
3,178,B3
4,83.2,B4
5,22.3,B5

# Target: T2, human calcitonin receptor
# Assay: ratio of binding IC50 at human calcitonin receptor to IC50 at human amylin receptor (reference)
# In short: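 Competition binding by SPA with cell membranes (35 ng/μL) and SPA beads in 50 mM Hepes pH 7.4 with 1 mM CaCl2, 5 mM MgCl2, 0.1% OA and 0.02% Tween20. Incubated 120 min at 25 °C with shaking, then counted.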
row,Ratio hCT/hAmylin binding,Binder
1,64.4,B1
2,91.4,B2
3,51.7,B3
4,101,B4
5,101,B5
